Article PMC6326779 (2018)

Target: T1, CRBN (Homo sapiens, UniProt Q96SW2)
T1 chain: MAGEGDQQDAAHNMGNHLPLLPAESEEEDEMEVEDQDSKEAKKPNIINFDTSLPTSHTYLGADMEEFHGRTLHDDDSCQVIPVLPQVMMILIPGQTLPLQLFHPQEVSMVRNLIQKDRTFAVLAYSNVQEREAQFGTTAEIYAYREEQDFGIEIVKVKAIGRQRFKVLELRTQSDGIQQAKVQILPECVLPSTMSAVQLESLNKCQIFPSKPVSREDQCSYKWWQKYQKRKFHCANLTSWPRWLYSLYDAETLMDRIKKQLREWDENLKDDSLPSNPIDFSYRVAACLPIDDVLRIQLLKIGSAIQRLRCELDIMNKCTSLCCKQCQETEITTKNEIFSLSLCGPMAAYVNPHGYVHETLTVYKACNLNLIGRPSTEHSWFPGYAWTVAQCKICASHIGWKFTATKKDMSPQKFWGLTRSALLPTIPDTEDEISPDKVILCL
Assay: TR-FRET

B1: IKZF1 ZF2-ZF3 143-243(Δ197-238) (protein)
chain: RPFQCNQCGASFTQKGNLLRHIKLHSGEKPFKCHLCNYACRRRDALTGHLRTHSVGKPHKCGYCGRSYKQRSSLEEHKERCHNYLESMGLPGTLYPVIKEE
modifications: pomalidomide
For B1, the Ki was 165 nM.
